The source of these data is PMC7949164.

The target of the assay is T1, myc-tagged mouse Ccr1 Y18F mutant (mouse) (UniProt P51675).
T1 sequence: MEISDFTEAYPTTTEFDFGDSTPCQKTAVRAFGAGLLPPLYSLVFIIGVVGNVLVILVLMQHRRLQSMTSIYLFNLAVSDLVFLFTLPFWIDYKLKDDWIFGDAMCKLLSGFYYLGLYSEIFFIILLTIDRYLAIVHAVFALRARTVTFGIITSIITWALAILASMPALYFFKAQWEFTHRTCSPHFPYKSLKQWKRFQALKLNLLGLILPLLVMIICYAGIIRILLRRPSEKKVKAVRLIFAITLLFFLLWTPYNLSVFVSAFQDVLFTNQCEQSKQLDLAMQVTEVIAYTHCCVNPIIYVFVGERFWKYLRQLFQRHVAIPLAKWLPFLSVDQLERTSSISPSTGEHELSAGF

For the molecule recombinant mouse Ccl9/10 (ligand), the internalisation: cell surface receptor left (MFI in % of buffer alone) after 100 nM chemokine, FACS, L1.2 cells (% cell surface receptor) worked out at 20.

B1: recombinant mouse Ccl3 (ligand)
chain: APYGADTPTACCFSYSRKIPRQFIVDYFETSSLCSQPGVIFLTKRNRQICADSKETWVQEYITDLELNA
Consider B1, for which the internalisation: cell surface receptor left (MFI in % of buffer alone) after 100 nM chemokine, FACS, L1.2 cells (% cell surface receptor) stood at 35.
